B1: HDV Ribozyme (parent)
chain: GGCCGGCAUGGUCCCAGCCUCCUCGCUGGCGCCGGCUGGGCAACAUUCCGAGGGGACCGUCCCCUCGGUAAUGGCGAAUGGGACCCA

Variants of: B1
Experiment: self-cleavage, relative activity (ratio to wild type); higher = more cleavage; co-transcriptional

Compared with CGCCGGCAUGGUCCCAGCCUCCUCGCUGGCGCCGGCUGGGCAACAUUCCGAGGGGACCGUCCCCUCGGUAAUCGCGAAUGGGACCCA, GGCCGGCAUGGUCCCAGCCUCCUCGCUGGCGCAGGCUGGGCAACAUUCCGAGGGGACCGUCCCCUCGGUAAUGGCGAUUGGGACCCA is lower in self-cleavage: 0.142 for the first, 0.108 for the second.

Compared with GGCCGGCAUGGUCCCAACCUCCGCGCUGGCGCCGGCUGGGCAACAUUCCGAGGGGACCGUCCCCUCGGUAAUGGCGAAUGGGACCCA, GGCCGGAAUGGUCCCAGCCUCCUCGCUGGCGCCGGCUGGGCAACAUUCCGAGGGGACCGUCCCCUCGGUAAUGGCGAAUGGGAGCCA is lower in self-cleavage: 0.427 for the first, 0.128 for the second.

Going from GGCCGGCAUGGUCCCAGCCUCCUCGCUGGCGCCGGCUGGGCAACAUUACGAGGGGACCGCCCCCUCGGUAAUGGCGAAUGGGACCCA to GGCCGGCAUGGUCCCGGCCUCCUCGCUGGCGCCGGCUGGGCAACAUUCCGAGGGGACCGUCCCCUCGGUAAUGGCGAAUGGGACCGA, the self-cleavage rises from 0.91 to 1.2.

Compared with GGACGGCAUGGUCCCAGGCUCCUCGCUGGCGCCGGCUGGGCAACAUUCCGAGGGGACCGUCCCCUCGGUAAUGGCGAAUGGGACCCA, GGCUGGCAUGGUCCCAGCCUCCUCGCUGCCGCCGGCUGGGCAACAUUCCGAGGGGACCGUCCCCUCGGUAAUGGCGAAUGGGACCCA is higher in self-cleavage: 0 for the first, 0.0396 for the second.

Going from GGCCGGGAUGGUCCCAGCCUCCUCGCUGGCGCCGGCUGGGCAACAUUCCGAGGGGACCUUCCCCUCGGUAAUGGCGAAUGGGACCCA to GGCCGCCAUCGUCCCAGCCUCCUCGCUGGCGCCGGCUGGGCAACAUUCCGAGGGGACCGUCCCCUCGGUAAUGGCGAAUGGGACCCA, the self-cleavage falls from 0.237 to 0.0875.

Going from GGCCGGCAUGGUCCCAGCCUCCUCGCUGGCGCCGGCUGGGCAACAUUUCGAGGGGACCGUCCCCUCGGUAAUGGCAAAUGGGACCCA to GUCCGGCAUGGUCCCAGCCUCCUCUCUGGCGCCGGCUGGGCAACAUUCCGAGGGGACCGUCCCCUCGGUAAUGGCGAAUGGGACCCA, the self-cleavage falls from 1.08 to 0.0449.

Going from GGCCGGCAUGGUCCCAGCCUCCUCGCUGGCGCCGGCUGGGCAACAUUCCGCGGGGACCGUCCCCUCGGUAAUGGCGAAUGGGAACCA to GGCCGGCAUGGUCCCAGCCUCCUCGCUGGCGCCGGUUGGGCAACAUUCCGAGGGGACCGUCCCCUCGGUAAUGGAGAAUGGGACCCA, the self-cleavage falls from 0.675 to 0.203.

First: GGACGGCAUGGUCCCAGCCUCCUCGCUGGCGCCGGCUGGGCAACAUUCCGAGGUGACCGUCCCCUCGGUAAUGGCGAAUGGGACCCA
Second: GGCCGGCAUGGUCCCAGUCUCCUCGCUGGCGCCGGCUGGGCAACAUUCCGAGGGGACCGUCCCCUCGGUAAUGGCGAAUGGGGCCCA
The self-cleavage of the first is higher: 0.453 for the first, 0.356 for the second.

First: GGCCGGCAUGGUCCCAGCCGCCUCGCUGGCGCCGGCUGGGCAACAUUCCGAGGGGACCGUCCCUUCGGUAAUGGCGAAUGGGACCCA
Second: GGCCGGCAUGGUCCCAGCCUCCUCGCUGGCGCCGGCUGGGCAACAUUCCGAGGGGACCGUCCCCUCGGUAAGGGCGAACGGGACCCA
The self-cleavage of the first is lower: 0.291 for the first, 0.297 for the second.

Going from GGCCGGCAUGGUCCCAGCUUCCUCGCUGGCGCCGGCUGGGCAACAUUCCGAGGGGACCGUCCCCUCGGCAAUGGCGAAUGGGACCCA to GGCCGGCAUUGUCCCAGCCUCCUCGCUGGCGCCGGCUGGGCAACAUUCCGAGGGGACCGUCCCCUCGGUAAUGGCGAAUGGGACCCG, the self-cleavage rises from 0.0997 to 0.704.

Going from CGCCGGCAUGGUCCCAGCCUCCUCGCUGGCGCCGGCUGGGCAACAUUCCGAGGGGACCGUCCCCUCGGUAAUGGCCAAUGGGACCCA to GGCCGGCAUGGUCCCAGCCUCCUUGCUGGCGCCGGCUGGGCAACAUUCCGACGGGACCGUCCCCUCGGUAAUGGCGAAUGGGACCCA, the self-cleavage rises from 0.237 to 0.884.

First: GGCCGGCAUGGUCCCAGCCUCCUCGCUGGCGCCGGCUGGGCAACAUUCCGAGGGGAUCGUCCCCUCGGUAAUGGCCAAUGGGACCCA
Second: GGCCGGGAUGGUCCCAGCCUCCUCGCUGGCGCCGGCUUGGCAACAUUCCGAGGGGACCGUCCCCUCGGUAAUGGCGAAUGGGACCCA
The self-cleavage of the first is higher: 0.902 for the first, 0.0692 for the second.

Compared with GGCCGGCAUGGUCCCAGCCUCCUCGCUGGGACCGGCUGGGCAACAUUCCGAGGGGACCGUCCCCUCGGUAAUGGCGAAUGGGACCCA, GGCCGGCAUGGUCCCAGUCUCCUCGCUGGCGCCGGCUGGGCAACAUUCCUAGGGGACCGUCCCCUCGGUAAUGGCGAAUGGGACCCA is higher in self-cleavage: 0.133 for the first, 0.639 for the second.

Going from GGCCGGCAUGGUCCCAGCCUCCUCGCUGGCGCCGGCUGGGCAACCUUCCGAGGGGACCGUCCCCUCGGUAAUGGCGAAUGGAACCCA to GGCCGGCAUGGUCCCAGCCUCGUCGCUGGCGCCGGCAGGGCAACAUUCCGAGGGGACCGUCCCCUCGGUAAUGGCGAAUGGGACCCA, the self-cleavage falls from 0.208 to 0.0845.

Going from GGCCGGCAUGGUCCCAGCGUCCUCGCUGGCGCCGGCUGGGCAACAUUCCGAGGGGACCGUCCCCUCGGUAAUGGCGAAUGGGCCCCA to GGCCGGCAUGGUCCCAGCCUCCUCGCUGGCGCCGGCUGGGCAACAUUCCGAGGGGACCGUCCCCUCGAUAAUGACGAAUGGGACCCA, the self-cleavage rises from 0 to 0.51.

First: GGCCGGCAUUGUCCCAGCCUCCUCACUGGCGCCGGCUGGGCAACAUUCCGAGGGGACCGUCCCCUCGGUAAUGGCGAAUGGGACCCA
Second: GGCCGGCAUGGUCCCAGCCUCCUCGCUGGCGCCGGCUGGGCAACGUUCCGAGGGGACCGUCUCCUCGGUAAUGGCGAAUGGGACCCA
The self-cleavage of the first is lower: 0.114 for the first, 1.03 for the second.

— the RNAGym collection of RNA variant scans (doi:10.7554/elife.80360)
